From patent US20240076343A1 (CEPHALON, published 2024) come the findings set out here.

The target in assay [1] is human PD-1 on Jurkat Effector cells of the PD-1/PD-L1 blockade bioassay (Promega, Cat #J1255) (human, UniProt Q15116 25-288). Nature of the assay: cell-based or functional assay.
The target of assay [2] is T1, native human PD-1 on PMA/ionomycin-activated primary human T cells (human, UniProt Q15116 25-288).
T1 construct: whole, on cells; also called native hPD-1
Nature of the assay: flow cytometry, activated human CD3+CD4+ T cells.
Protocol: (§1) The binding of anti-hPD-1 antibodies and anti-hPD-1-attenuated hIL-2 fusion proteins on activated primary T cells expressing hPD-1 was examined by flow cytometry. […] Cells were then stained with 1:20 dilution of Allophycocyanin-conjugated anti-human IgG Fc to detect bound antibody. To delineate immune subsets, a cocktail of surface markers included anti-human CD3, anti-CD4, and anti-CD8 antibodies was used. […] Cells were analyzed on the BD Fortessa (BD Biosciences), FlowJo software version 10 was used to gate on T cell subsets then calculate gMFI of the allophycocyanin signal. EC₅₀ values were calculated from the gMFI across the titrated concentrations using GraphPad Prism 7 software. To test the binding of anti-hPD-1-hIL-2 fusion proteins, cryopreserved CD3+ T cells were activated with PMA/ionomycin and flow cytometry binding was performed identically as described above.

Assay [3] deals with T1, native human PD-1 on …. Nature of the assay: flow cytometry, activated human CD3+CD8+ T cells. In general terms: In flow cytometry, cells or beads pass a laser one at a time.
Protocol: as §1
Assay [4] addresses T2, native cynomolgus PD-1 on PMA/ionomycin-activated cynomolgus T cells (cynomolgus, UniProt B0LAJ3 25-288). Nature of the assay: flow cytometry, activated cynomolgus CD3+CD4+ T cells.
Protocol: (§2) Human PD-1 antibody-attenuated hIL-2 fusion proteins were also tested for binding to activated cynomolgus T cells using flow cytometry. […] 24 hours later, cells were stained using the same procedure as binding to human PD-1 primary cells described above except cynomolgus cross-reactive markers were used. FlowJo software version 10 was used to gate on live, CD3⁺CD4⁺ or CD3⁺CD8⁺ T cells and then to calculate gMFI of the Allophycocyanin signal. EC₅₀ values were calculated from the gMFI across the titrated concentrations of anti-hPD-1 antibodies or hPD-1 antibody-attenuated hIL-2 fusion proteins using GraphPad Prism 7 software.
For assay [5], the target named is T2, native cynomolgus PD-1 on …. Nature of the assay: flow cytometry, activated cynomolgus CD3+CD8+ T cells.
Protocol: as §2
The target of assay [6] is T3, human PD-1 (amino acids 1-185) on transfected Jurkat cells (human, UniProt Q15116 21-185).
T3 construct: also called hPD-1; Jurkat+hPD-1 cell line
T3 sequence (Q15116 21-185 limits assumed): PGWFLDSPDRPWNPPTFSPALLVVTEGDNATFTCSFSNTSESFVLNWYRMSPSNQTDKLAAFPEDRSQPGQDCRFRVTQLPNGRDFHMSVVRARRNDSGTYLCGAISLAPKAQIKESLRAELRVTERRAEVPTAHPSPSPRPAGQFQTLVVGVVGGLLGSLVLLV
Nature of the assay: flow cytometry on Jurkat cells expressing hPD-1; no competitor.
Protocol: (§3) Briefly, Jurkat cells stably expressing hPD-1 (as described in Protocol A above) were washed and re-suspended in FACS buffer containing 1:50 dilution of human FcR Blocking reagent. Cells were incubated at 4° C. for 10 minutes and washed. […] Cells were washed and incubated with test antibodies or antibody-attenuated hIL-2 fusion proteins serially diluted six-fold for an 8-point curve in 100 μL volume for one hour at 4° C. To detect bound test anti-hPD-1 antibodies or anti-hPD-1-attenuated hIL-2 fusion proteins, cells were washed again and incubated with 1:40 dilution of Allophycocyanin-conjugated anti-human IgG Fc monoclonal antibody for 45 minutes on ice. Cells were washed and re-suspended in FACS buffer containing 1:1000 dilution of Sytox Green (Thermo Fisher). […] Flow cytometry was carried out on the BD Canto II, BD Celesta, or BD Fortessa (BD Biosciences) flow cytometers and gMFI was calculated using FlowJo software version 10. EC₅₀ values were calculated from the gMFI of the Allophycocyanin signal across the titrated concentrations using GraphPad Prism 7 software.

Assay [7] has as its target T3, human PD-1 (amino acids 1-185) on …. The experiment in a line: flow cytometry, Jurkat+hPD-1 cells; competitor 10 µM anti-hPD-1 #1-mIgG2b-N297A.
Protocol: as §3
Assay [8] shares this target. The experiment in a line: flow cytometry on Jurkat cells expressing hPD-1; cells pre-incubated with 10 µM anti-hPD-1 #1-mIgG2b-N297A.
Protocol: as §3
Assay [9] shares this target. The experiment in a line: flow cytometry on Jurkat cells expressing hPD-1; cells pre-incubated with 10 µM anti-hPD-1 #2-mIgG2b-N297A.
The target of assay [10] is T4, recombinant His-tagged human PD-1 (Acro Biosystems) (human, UniProt Q15116 25-167).
T4 construct: also called recombinant human PD-1; human PD-1 (Acro Biosystems, Cat #PD-1-H5221-100 ug)
T4 sequence (Q15116 25-167 limits assumed): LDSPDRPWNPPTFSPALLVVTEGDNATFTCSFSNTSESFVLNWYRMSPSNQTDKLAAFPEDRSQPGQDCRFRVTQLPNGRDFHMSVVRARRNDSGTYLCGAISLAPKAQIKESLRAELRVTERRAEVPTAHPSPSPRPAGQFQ
Nature of the assay: SPR, steady state, separate experiment; separate experiment; steady state KD. In general terms: SPR reads the build-up and loss of mass on a sensor chip optically.

T1 sequence (Q15116 25-288): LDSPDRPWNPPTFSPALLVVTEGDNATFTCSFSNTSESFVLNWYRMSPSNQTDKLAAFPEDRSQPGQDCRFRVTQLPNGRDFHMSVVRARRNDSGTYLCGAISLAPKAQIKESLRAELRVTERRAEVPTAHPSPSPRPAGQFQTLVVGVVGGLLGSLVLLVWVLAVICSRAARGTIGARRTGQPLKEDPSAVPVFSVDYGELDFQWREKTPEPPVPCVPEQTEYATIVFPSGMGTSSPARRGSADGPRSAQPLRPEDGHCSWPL
T2 sequence (B0LAJ3 entry or part of it limits assumed): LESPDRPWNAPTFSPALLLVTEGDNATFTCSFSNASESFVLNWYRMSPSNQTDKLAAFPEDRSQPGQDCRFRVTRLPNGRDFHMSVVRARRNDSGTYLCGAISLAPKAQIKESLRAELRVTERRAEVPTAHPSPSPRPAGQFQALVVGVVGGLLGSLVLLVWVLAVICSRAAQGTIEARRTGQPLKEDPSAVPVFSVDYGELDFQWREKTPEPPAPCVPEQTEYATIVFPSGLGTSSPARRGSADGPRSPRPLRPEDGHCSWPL
human PD-1 on Jurkat Effector cells of the PD-1/PD-L1 blockade bioassay (Promega, Cat #J1255), sequence (Q15116 25-288): as the sequence (Q15116 25-288) above

B1: 2H7-hIgG4 (antibody)
heavy: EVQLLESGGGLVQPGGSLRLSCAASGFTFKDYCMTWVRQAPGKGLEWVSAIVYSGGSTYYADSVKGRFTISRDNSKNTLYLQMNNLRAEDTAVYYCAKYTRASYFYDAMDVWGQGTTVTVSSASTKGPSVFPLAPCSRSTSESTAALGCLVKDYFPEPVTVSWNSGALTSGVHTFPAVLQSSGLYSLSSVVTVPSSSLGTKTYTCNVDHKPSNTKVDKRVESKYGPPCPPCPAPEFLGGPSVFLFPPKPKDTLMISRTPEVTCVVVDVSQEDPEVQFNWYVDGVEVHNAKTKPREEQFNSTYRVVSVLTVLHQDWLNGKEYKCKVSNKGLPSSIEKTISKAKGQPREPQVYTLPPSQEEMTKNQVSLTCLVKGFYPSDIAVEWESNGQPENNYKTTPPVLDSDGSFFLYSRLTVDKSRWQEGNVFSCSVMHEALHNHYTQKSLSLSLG
light: EIVLTQSPGTLSLSPGERATLSCRASQSIGKSFLAWYQQKPGQAPRLLIYDASTRAADIPARFSGSGSGTDFTLTISSLEPEDFAVYYCQQYYDWPPLSFGGGTKVEIKRTVAAPSVFIFPPSDEQLKSGTASVVCLLNNFYPREAKVQWKVDNALQSGNSQESVTEQDSKDSTYSLSSTLTLSKADYEKHKVYACEVTHQGLSSPVTKSFNRGEC
The term EC50 denotes the concentration giving half of the maximal effect. A higher EC50 goes with a less potent agent. The EC50 (read off the curve) is the concentration that produces a half-maximal response. Low values mean higher potency in that assay, high ones lower potency in that assay. In the case of B1, the “luminescence (RLU), PD-1/PD-L1 blockade bioassay” value in [1] is approximately 3000 RLU. The 50% effective concentration (EC50) in [2] is 0.1 to 0.7 nM; in assay [3], 0.1 to 0.8 nM; in assay [4], 0.09 nM; in assay [5], 0.08 nM. Also, the concentration giving a half-maximal response (EC50 (read off the curve)) in [6] is approximately 0.3 nM; in assay [8], approximately 0.5 nM; in assay [9] it was approximately 2 nM. In assay [7], the “fold shift of the dose-titration curve” value was less than 10 fold.

B2: H7-632-hIgG1-LAGA (antibody, V domains shown)
VH: EVQLLESGGGLVQPGGSLRLSCAASGFTFKSYAMHWVRQAPGKGLEWVSAIVYSGGSTYYADSVKGRFTISRDNSKNTLYLQMNSLRAEDTAVYYCAKYDRASYFYDAMDVWGQGTTVTVSS
VL: EIVLTQSPGTLSLSPGERATLSCRASQSISSSFLAWYQQKPGQAPRLLIYDASDRATGIPDRFSGSGSGTDFTLTISRLEPEDFAVYYCQQYYDWPPLSFGGGTKVEIKR
As a reminder, the Kd is the concentration at which binding is half-saturated. For the molecule B2, the Kd in assay [10] was determined as 1.23 nM.
